Measurements: patent US20240124553A1

Legend:
Assay in all cases: flow cytometry, transfected 293T cells
[1] = target: CHIKV E2-E1 envelope glycoproteins (strain S27), E2 mutant A33S (chikungunya virus strain S27) (UniProt Q8JUX5)
[2] = target: CHIKV E2-E1 envelope glycoproteins (strain S27), E2 mutant D132A (chikungunya virus strain S27) (UniProt Q8JUX5)
[3] = target: CHIKV E2-E1 envelope glycoproteins (strain S27), E2 mutant D63A (chikungunya virus strain S27) (UniProt Q8JUX5)
[4] = target: CHIKV E2-E1 envelope glycoproteins (strain S27), E2 mutant D71A (chikungunya virus strain S27) (UniProt Q8JUX5)
[5] = target: CHIKV E2-E1 envelope glycoproteins (strain S27), E2 mutant D77A (chikungunya virus strain S27) (UniProt Q8JUX5)
[6] = target: CHIKV E2-E1 envelope glycoproteins (strain S27), E2 mutant G114A (chikungunya virus strain S27) (UniProt Q8JUX5)
[7] = target: CHIKV E2-E1 envelope glycoproteins (strain S27), E2 mutant G44A (chikungunya virus strain S27) (UniProt Q8JUX5)
[8] = target: CHIKV E2-E1 envelope glycoproteins (strain S27), E2 mutant G57A (chikungunya virus strain S27) (UniProt Q8JUX5)
[9] = target: CHIKV E2-E1 envelope glycoproteins (strain S27), E2 mutant G79A (chikungunya virus strain S27) (UniProt Q8JUX5)
[10] = target: CHIKV E2-E1 envelope glycoproteins (strain S27), E2 mutant G82A (chikungunya virus strain S27) (UniProt Q8JUX5)
[11] = target: CHIKV E2-E1 envelope glycoproteins (strain S27), E2 mutant G98A (chikungunya virus strain S27) (UniProt Q8JUX5)
[12] = target: CHIKV E2-E1 envelope glycoproteins (strain S27), E2 mutant H127A (chikungunya virus strain S27) (UniProt Q8JUX5)
[13] = target: CHIKV E2-E1 envelope glycoproteins (strain S27), E2 mutant H62A (chikungunya virus strain S27) (UniProt Q8JUX5)
[14] = target: CHIKV E2-E1 envelope glycoproteins (strain S27), E2 mutant I56A (chikungunya virus strain S27) (UniProt Q8JUX5)
[15] = target: CHIKV E2-E1 envelope glycoproteins (strain S27), E2 mutant I74A (chikungunya virus strain S27) (UniProt Q8JUX5)
[16] = target: CHIKV E2-E1 envelope glycoproteins (strain S27), E2 mutant I93A (chikungunya virus strain S27) (UniProt Q8JUX5)
[17] = target: CHIKV E2-E1 envelope glycoproteins (strain S27), E2 mutant K107A (chikungunya virus strain S27) (UniProt Q8JUX5)
[18] = target: CHIKV E2-E1 envelope glycoproteins (strain S27), E2 mutant K47A (chikungunya virus strain S27) (UniProt Q8JUX5)
[19] = target: CHIKV E2-E1 envelope glycoproteins (strain S27), E2 mutant L67A (chikungunya virus strain S27) (UniProt Q8JUX5)
[20] = target: CHIKV E2-E1 envelope glycoproteins (strain S27), E2 mutant L83A (chikungunya virus strain S27) (UniProt Q8JUX5)
[21] = target: CHIKV E2-E1 envelope glycoproteins (strain S27), E2 mutant M70A (chikungunya virus strain S27) (UniProt Q8JUX5)
[22] = target: CHIKV E2-E1 envelope glycoproteins (strain S27), E2 mutant P106A (chikungunya virus strain S27) (UniProt Q8JUX5)
[23] = target: CHIKV E2-E1 envelope glycoproteins (strain S27), E2 mutant P75A (chikungunya virus strain S27) (UniProt Q8JUX5)
[24] = target: CHIKV E2-E1 envelope glycoproteins (strain S27), E2 mutant Q53A (chikungunya virus strain S27) (UniProt Q8JUX5)
[25] = target: CHIKV E2-E1 envelope glycoproteins (strain S27), E2 mutant R104A (chikungunya virus strain S27) (UniProt Q8JUX5)
[26] = target: CHIKV E2-E1 envelope glycoproteins (strain S27), E2 mutant R36A (chikungunya virus strain S27) (UniProt Q8JUX5)
[27] = target: CHIKV E2-E1 envelope glycoproteins (strain S27), E2 mutant S124A (chikungunya virus strain S27) (UniProt Q8JUX5)
[28] = target: CHIKV E2-E1 envelope glycoproteins (strain S27), E2 mutant S51A (chikungunya virus strain S27) (UniProt Q8JUX5)
[29] = target: CHIKV E2-E1 envelope glycoproteins (strain S27), E2 mutant S61A (chikungunya virus strain S27) (UniProt Q8JUX5)
[30] = target: CHIKV E2-E1 envelope glycoproteins (strain S27), E2 mutant T112A (chikungunya virus strain S27) (UniProt Q8JUX5)
[31] = target: CHIKV E2-E1 envelope glycoproteins (strain S27), E2 mutant T58A (chikungunya virus strain S27) (UniProt Q8JUX5)
[32] = target: CHIKV E2-E1 envelope glycoproteins (strain S27), E2 mutant T92A (chikungunya virus strain S27) (UniProt Q8JUX5)
[33] = target: CHIKV E2-E1 envelope glycoproteins (strain S27), E2 mutant T96A (chikungunya virus strain S27) (UniProt Q8JUX5)

Row | Substance | Binding Reactivity (% WT) [1] [% WT] | Binding Reactivity (% WT) [3] [% WT] | Binding Reactivity (% WT) [4] [% WT] | Binding Reactivity (% WT) [5] [% WT] | Binding Reactivity (% WT) [6] [% WT] | Binding Reactivity (% WT) [7] [% WT] | Binding Reactivity (% WT) [8] [% WT] | Binding Reactivity (% WT) [9] [% WT] | Binding Reactivity (% WT) [10] [% WT] | Binding Reactivity (% WT) [11] [% WT] | Binding Reactivity (% WT) [12] [% WT] | Binding Reactivity (% WT) [13] [% WT] | Binding Reactivity (% WT) [14] [% WT] | Binding Reactivity (% WT) [15] [% WT] | Binding Reactivity (% WT) [16] [% WT] | Binding Reactivity (% WT) [17] [% WT] | Binding Reactivity (% WT) [18] [% WT] | Binding Reactivity (% WT) [19] [% WT] | Binding Reactivity (% WT) [20] [% WT] | Binding Reactivity (% WT) [21] [% WT] | further results
1 | CHIKV mAb IM-CKV063 (antibody) | 99.4 | 65.8 | 98.9 | 92.2 | 58.4 | 68.2 | 96.5 | 86.9 | 91.1 | 99.9 | 96.1 | 79.6 | 111 | 106 | 8.4 | 86.8 | 72.1 | 62.1 | 18.7 | 81.7 | Binding Reactivity (% WT) [2]: 116 % WT; Binding Reactivity (% WT) [22]: 94.3 % WT; Binding Reactivity (% WT) [23]: 96.4 % WT; Binding Reactivity (% WT) [24]: 37.3 % WT; Binding Reactivity (% WT) [25]: 75.7 % WT; Binding Reactivity (% WT) [26]: 76.5 % WT; Binding Reactivity (% WT) [27]: 97.8 % WT; Binding Reactivity (% WT) [28]: 89.8 % WT; Binding Reactivity (% WT) [29]: 100 % WT; Binding Reactivity (% WT) [30]: 43.1 % WT; Binding Reactivity (% WT) [31]: 88.7 % WT; Binding Reactivity (% WT) [32]: 84.5 % WT; Binding Reactivity (% WT) [33]: 111 % WT
2 | CHIKV mAb IM-CKV065 (antibody) | 123 | 64.8 | 102 | 61.2 | 35.2 | 50.4 | 108 | 98.5 | 104 | 112 | 81.9 | 88.5 | 102 | 0.3 | -0.9 | 95.2 | 85.5 | 54.1 | 6.2 | 104 | Binding Reactivity (% WT) [2]: 126 % WT; Binding Reactivity (% WT) [22]: 98.1 % WT; Binding Reactivity (% WT) [23]: 84.9 % WT; Binding Reactivity (% WT) [24]: 43.3 % WT; Binding Reactivity (% WT) [25]: 66.9 % WT; Binding Reactivity (% WT) [26]: 119 % WT; Binding Reactivity (% WT) [27]: 97.3 % WT; Binding Reactivity (% WT) [28]: 85.6 % WT; Binding Reactivity (% WT) [29]: 112 % WT; Binding Reactivity (% WT) [30]: 16.2 % WT; Binding Reactivity (% WT) [31]: 93.5 % WT; Binding Reactivity (% WT) [32]: 93.2 % WT; Binding Reactivity (% WT) [33]: 113 % WT
3 | Mxra8-Fc (mouse Mxra8 extracellular domain fused to mouse IgG2b Fc) (Fc fusion) | 85.3 | 85 | -0.3 | 83.7 | 79.1 | 72.2 | 106 | 94.6 | 123 | 102 | 78 | 102 | 91.7 | 44.8 | 14.6 | 84.6 | 102 | 77.4 | 17.3 | 110 | Binding Reactivity (% WT) [22]: 91.2 % WT; Binding Reactivity (% WT) [23]: 86.7 % WT; Binding Reactivity (% WT) [24]: 26.3 % WT; Binding Reactivity (% WT) [27]: 92.8 % WT; Binding Reactivity (% WT) [28]: 99.2 % WT; Binding Reactivity (% WT) [29]: 116 % WT; Binding Reactivity (% WT) [30]: 44.2 % WT; Binding Reactivity (% WT) [31]: 94.1 % WT; Binding Reactivity (% WT) [32]: 98.6 % WT; Binding Reactivity (% WT) [33]: 95.6 % WT
